Measured values as given in EP4786492A1.

How the values were obtained:
[1] = target: human DLL3 endogenously expressed on SHP77 and NCI-H82 cells (human) (UniProt Q9NYJ7); test: FACS SHP77 cells, 4 nM
[2] = target: human DLL3 endogenously expressed on SHP77 and NCI-H82 cells (human) (UniProt Q9NYJ7); test: FACS SHP77 cells, 20 nM
[3] = target: human DLL3 endogenously expressed on SHP77 and NCI-H82 cells (human) (UniProt Q9NYJ7); test: FACS SHP77 cells, 0.8 nM
[4] = target: human DLL3 endogenously expressed on SHP77 and NCI-H82 cells (human) (UniProt Q9NYJ7); test: FACS SHP77 cells, 100 nM
[5] = target: human DLL3 endogenously expressed on SHP77 and NCI-H82 cells (human) (UniProt Q9NYJ7); test: FACS SHP77 cells, 0.16 nM
[6] = target: human DLL3 endogenously expressed on SHP77 and NCI-H82 cells (human) (UniProt Q9NYJ7); test: FACS SHP77 cells, 0.032 nM
[7] = target: human DLL3 endogenously expressed on SHP77 and NCI-H82 cells (human) (UniProt Q9NYJ7); test: FACS SHP77 cells, 0.0064 nM
[8] = target: human DLL3 endogenously expressed on SHP77 and NCI-H82 cells (human) (UniProt Q9NYJ7); test: FACS SHP77 cells, 0.00128 nM
[9] = target: human delta-like ligand 3 (DLL3) on SHP77 cells (human) (UniProt Q9NYJ7); test: FACS on SHP77 cells
[10] = target: DLL3 endogenously expressed on NCI-H82 cells (UniProt Q9NYJ7); test: FACS on NCI-H82 cells; antibody 4 nM
[11] = target: DLL3 endogenously expressed on NCI-H82 cells (UniProt Q9NYJ7); test: FACS on NCI-H82 cells; antibody 20 nM
[12] = target: DLL3 endogenously expressed on NCI-H82 cells (UniProt Q9NYJ7); test: FACS on NCI-H82 cells; antibody 0.8 nM
[13] = target: DLL3 endogenously expressed on NCI-H82 cells (UniProt Q9NYJ7); test: FACS on NCI-H82 cells; antibody 100 nM
[14] = target: DLL3 endogenously expressed on NCI-H82 cells (UniProt Q9NYJ7); test: FACS on NCI-H82 cells; antibody 0.16 nM
[15] = target: human DLL3 protein expressed on CHO-K1 recombinant cells (human DLL3 extracellular segment fused to EpCAM transmembrane and intracellular regions) (human) (UniProt Q9NYJ7); test: FACS, CHO-K1 hDLL3 cells, 4 nM antibody
[16] = target: mouse DLL3 on CHO-K1-mDLL3 cells (mouse) (UniProt O88516); test: FACS, CHO-K1-mDLL3 cells, 4 nM antibody
[17] = target: DLL3 endogenously expressed on NCI-H82 cells (UniProt Q9NYJ7); test: FACS on NCI-H82 cells; antibody 0.032 nM
[18] = target: human DLL3 protein expressed on CHO-K1 recombinant cells (human DLL3 extracellular segment fused to EpCAM transmembrane and intracellular regions) (human) (UniProt Q9NYJ7); test: FACS, CHO-K1 hDLL3 cells, 20 nM antibody
[19] = target: mouse DLL3 on CHO-K1-mDLL3 cells (mouse) (UniProt O88516); test: FACS, CHO-K1-mDLL3 cells, 20 nM antibody
[20] = target: DLL3 endogenously expressed on NCI-H82 cells (UniProt Q9NYJ7); test: FACS on NCI-H82 cells; antibody 0.0064 nM
[21] = target: human DLL3 protein expressed on CHO-K1 recombinant cells (human DLL3 extracellular segment fused to EpCAM transmembrane and intracellular regions) (human) (UniProt Q9NYJ7); test: FACS, CHO-K1 hDLL3 cells, 0.8 nM antibody
[22] = target: human DLL3 protein expressed on CHO-K1 recombinant cells (human DLL3 extracellular segment fused to EpCAM transmembrane and intracellular regions) (human) (UniProt Q9NYJ7); test: FACS, CHO-K1 hDLL3 cells, 100 nM antibody
[23] = target: mouse DLL3 on CHO-K1-mDLL3 cells (mouse) (UniProt O88516); test: FACS, CHO-K1-mDLL3 cells, 0.8 nM antibody
[24] = target: mouse DLL3 on CHO-K1-mDLL3 cells (mouse) (UniProt O88516); test: FACS, CHO-K1-mDLL3 cells, 100 nM antibody
[25] = target: DLL3 endogenously expressed on NCI-H82 cells (UniProt Q9NYJ7); test: FACS on NCI-H82 cells; antibody 0.00128 nM
[26] = target: human DLL3 protein expressed on CHO-K1 recombinant cells (human DLL3 extracellular segment fused to EpCAM transmembrane and intracellular regions) (human) (UniProt Q9NYJ7); test: FACS, CHO-K1 hDLL3 cells, 0.16 nM antibody
[27] = target: mouse DLL3 on CHO-K1-mDLL3 cells (mouse) (UniProt O88516); test: FACS, CHO-K1-mDLL3 cells, 0.16 nM antibody
[28] = target: human DLL3 protein expressed on CHO-K1 recombinant cells (human DLL3 extracellular segment fused to EpCAM transmembrane and intracellular regions) (human) (UniProt Q9NYJ7); test: FACS, CHO-K1 hDLL3 cells, 0.032 nM antibody
[29] = target: monkey DLL3 on CHO-K1-cyno DLL3 cells (cynomolgus monkey); test: FACS, CHO-K1-cyno DLL3 cells, 4 nM antibody
[30] = target: mouse DLL3 on CHO-K1-mDLL3 cells (mouse) (UniProt O88516); test: FACS, CHO-K1-mDLL3 cells, 0.032 nM antibody
[31] = target: human DLL3 protein expressed on CHO-K1 recombinant cells (human DLL3 extracellular segment fused to EpCAM transmembrane and intracellular regions) (human) (UniProt Q9NYJ7); test: FACS, CHO-K1 hDLL3 cells, 0.0064 nM antibody
[32] = target: monkey DLL3 on CHO-K1-cyno DLL3 cells (cynomolgus monkey); test: FACS, CHO-K1-cyno DLL3 cells, 20 nM antibody
[33] = target: mouse DLL3 on CHO-K1-mDLL3 cells (mouse) (UniProt O88516); test: FACS, CHO-K1-mDLL3 cells, 0.0064 nM antibody
[34] = target: human DLL3 protein expressed on CHO-K1 recombinant cells (human DLL3 extracellular segment fused to EpCAM transmembrane and intracellular regions) (human) (UniProt Q9NYJ7); test: FACS, CHO-K1 hDLL3 cells, 0.00128 nM antibody
[35] = target: monkey DLL3 on CHO-K1-cyno DLL3 cells (cynomolgus monkey); test: FACS, CHO-K1-cyno DLL3 cells, 0.8 nM antibody
[36] = target: monkey DLL3 on CHO-K1-cyno DLL3 cells (cynomolgus monkey); test: FACS, CHO-K1-cyno DLL3 cells, 100 nM antibody
[37] = target: mouse DLL3 on CHO-K1-mDLL3 cells (mouse) (UniProt O88516); test: FACS, CHO-K1-mDLL3 cells, 0.00128 nM antibody
[38] = target: monkey DLL3 on CHO-K1-cyno DLL3 cells (cynomolgus monkey); test: FACS, CHO-K1-cyno DLL3 cells, 0.16 nM antibody
[39] = target: monkey DLL3 on CHO-K1-cyno DLL3 cells (cynomolgus monkey); test: FACS, CHO-K1-cyno DLL3 cells, 0.032 nM antibody
[40] = target: monkey DLL3 on CHO-K1-cyno DLL3 cells (cynomolgus monkey); test: FACS, CHO-K1-cyno DLL3 cells, 0.0064 nM antibody
[41] = target: monkey DLL3 on CHO-K1-cyno DLL3 cells (cynomolgus monkey); test: FACS, CHO-K1-cyno DLL3 cells, 0.00128 nM antibody
[42] = target: human DLL1 protein (Acro, Cat. No. DL1-H52H8) (human) (UniProt O00548); test: ELISA, coated hDLL1; maximum over 0.1, 1, 10, 100 nM antibody
[43] = target: human DLL4 protein (Acro, Cat. No. DL4-H5227) (human) (UniProt Q9NR61); test: ELISA, coated hDLL4; maximum over 0.1, 1, 10, 100 nM antibody
[44] = target: human DLL3 protein (extracellular segment, His tag) (human) (UniProt Q9NYJ7); test: SPR (Biacore 8K), antibody captured on Protein A chip, DLL3 antigen in solution, 1:1 Langmuir fit
human DLL3 protein (extracellular segment, His tag) (human), sequence (Q9NYJ7 27-492): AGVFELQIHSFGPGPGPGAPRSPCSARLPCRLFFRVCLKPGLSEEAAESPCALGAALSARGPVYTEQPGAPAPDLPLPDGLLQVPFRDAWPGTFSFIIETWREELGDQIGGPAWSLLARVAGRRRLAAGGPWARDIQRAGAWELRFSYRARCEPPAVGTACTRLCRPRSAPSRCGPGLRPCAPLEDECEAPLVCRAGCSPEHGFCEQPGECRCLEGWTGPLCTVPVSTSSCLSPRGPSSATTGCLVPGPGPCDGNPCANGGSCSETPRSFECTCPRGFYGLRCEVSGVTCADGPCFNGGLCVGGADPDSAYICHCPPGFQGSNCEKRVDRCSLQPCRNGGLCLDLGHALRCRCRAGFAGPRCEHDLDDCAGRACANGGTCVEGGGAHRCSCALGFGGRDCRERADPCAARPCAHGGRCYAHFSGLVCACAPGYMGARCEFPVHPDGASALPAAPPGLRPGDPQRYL

DLL3 endogenously expressed on NCI-H82 cells, sequence (Q9NYJ7 27-618): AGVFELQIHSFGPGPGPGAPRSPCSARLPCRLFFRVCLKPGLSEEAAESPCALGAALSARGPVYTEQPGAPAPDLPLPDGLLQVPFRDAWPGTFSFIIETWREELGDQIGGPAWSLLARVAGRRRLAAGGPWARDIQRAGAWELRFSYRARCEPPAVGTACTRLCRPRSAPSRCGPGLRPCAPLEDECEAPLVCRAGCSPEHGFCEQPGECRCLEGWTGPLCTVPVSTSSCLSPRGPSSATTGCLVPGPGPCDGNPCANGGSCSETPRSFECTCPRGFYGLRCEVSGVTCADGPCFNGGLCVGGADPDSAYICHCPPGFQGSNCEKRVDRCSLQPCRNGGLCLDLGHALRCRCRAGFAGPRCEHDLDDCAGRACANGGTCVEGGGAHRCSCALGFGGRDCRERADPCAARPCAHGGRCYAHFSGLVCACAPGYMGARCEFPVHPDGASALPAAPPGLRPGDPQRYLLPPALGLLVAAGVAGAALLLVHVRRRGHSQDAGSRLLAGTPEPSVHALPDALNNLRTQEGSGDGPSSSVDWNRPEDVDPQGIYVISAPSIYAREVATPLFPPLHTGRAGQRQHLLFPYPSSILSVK
human delta-like ligand 3 (DLL3) on SHP77 cells (human), sequence (Q9NYJ7 27-618, stated change not applied): as the sequence (Q9NYJ7 27-618) above
human DLL3 endogenously expressed on SHP77 and NCI-H82 cells (human), sequence (Q9NYJ7 27-618): as above
human DLL3 protein expressed on CHO-K1 recombinant cells (human DLL3 extracellular segment fused to EpCAM transmembrane and intracellular regions) (human), sequence (Q9NYJ7 other isoform, or with tags, fused parts or gaps limits assumed): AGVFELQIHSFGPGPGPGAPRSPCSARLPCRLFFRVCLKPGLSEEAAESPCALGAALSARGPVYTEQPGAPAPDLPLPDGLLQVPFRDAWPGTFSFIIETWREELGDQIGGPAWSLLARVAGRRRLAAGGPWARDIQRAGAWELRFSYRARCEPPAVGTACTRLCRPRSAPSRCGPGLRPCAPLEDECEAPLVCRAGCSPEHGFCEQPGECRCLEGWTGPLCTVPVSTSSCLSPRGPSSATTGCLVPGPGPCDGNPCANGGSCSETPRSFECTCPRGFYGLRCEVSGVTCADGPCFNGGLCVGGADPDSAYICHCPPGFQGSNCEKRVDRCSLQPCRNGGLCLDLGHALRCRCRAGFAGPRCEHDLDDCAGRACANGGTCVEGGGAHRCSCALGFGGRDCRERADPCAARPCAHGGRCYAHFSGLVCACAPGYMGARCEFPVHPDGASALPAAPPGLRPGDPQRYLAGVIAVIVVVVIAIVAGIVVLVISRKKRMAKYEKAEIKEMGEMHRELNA
mouse DLL3 on CHO-K1-mDLL3 cells (mouse), sequence (O88516 other isoform, or with tags, fused parts or gaps limits assumed): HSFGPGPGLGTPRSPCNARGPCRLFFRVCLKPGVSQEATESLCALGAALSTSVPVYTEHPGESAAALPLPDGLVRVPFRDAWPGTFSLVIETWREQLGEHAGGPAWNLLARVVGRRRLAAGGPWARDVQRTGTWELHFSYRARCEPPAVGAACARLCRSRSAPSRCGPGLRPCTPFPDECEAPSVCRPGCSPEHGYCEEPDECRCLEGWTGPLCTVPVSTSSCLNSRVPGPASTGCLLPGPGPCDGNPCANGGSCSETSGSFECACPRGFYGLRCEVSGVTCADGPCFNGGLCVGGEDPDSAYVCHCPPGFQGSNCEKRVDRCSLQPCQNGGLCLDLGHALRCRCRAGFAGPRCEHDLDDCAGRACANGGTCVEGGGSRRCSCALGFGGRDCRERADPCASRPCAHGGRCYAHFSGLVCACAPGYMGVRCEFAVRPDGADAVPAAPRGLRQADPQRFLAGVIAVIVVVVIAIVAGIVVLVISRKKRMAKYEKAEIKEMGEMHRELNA
monkey DLL3 on CHO-K1-cyno DLL3 cells (cynomolgus monkey), sequence (chain, as listed by the source limits assumed): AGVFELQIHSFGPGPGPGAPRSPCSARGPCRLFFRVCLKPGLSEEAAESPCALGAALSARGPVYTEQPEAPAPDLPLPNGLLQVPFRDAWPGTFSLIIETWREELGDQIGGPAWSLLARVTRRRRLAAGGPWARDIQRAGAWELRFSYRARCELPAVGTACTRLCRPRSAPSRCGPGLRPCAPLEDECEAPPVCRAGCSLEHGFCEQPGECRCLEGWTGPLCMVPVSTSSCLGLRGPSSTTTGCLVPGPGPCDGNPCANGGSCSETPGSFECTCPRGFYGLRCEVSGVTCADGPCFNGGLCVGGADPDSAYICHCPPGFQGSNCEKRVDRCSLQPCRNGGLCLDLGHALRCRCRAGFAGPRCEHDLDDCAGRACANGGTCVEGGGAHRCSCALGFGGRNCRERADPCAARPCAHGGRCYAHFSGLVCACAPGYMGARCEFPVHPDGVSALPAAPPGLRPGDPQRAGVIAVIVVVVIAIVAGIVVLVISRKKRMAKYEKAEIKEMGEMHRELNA
human DLL4 protein (Acro, Cat. No. DL4-H5227) (human), sequence (Q9NR61 27-524 limits assumed): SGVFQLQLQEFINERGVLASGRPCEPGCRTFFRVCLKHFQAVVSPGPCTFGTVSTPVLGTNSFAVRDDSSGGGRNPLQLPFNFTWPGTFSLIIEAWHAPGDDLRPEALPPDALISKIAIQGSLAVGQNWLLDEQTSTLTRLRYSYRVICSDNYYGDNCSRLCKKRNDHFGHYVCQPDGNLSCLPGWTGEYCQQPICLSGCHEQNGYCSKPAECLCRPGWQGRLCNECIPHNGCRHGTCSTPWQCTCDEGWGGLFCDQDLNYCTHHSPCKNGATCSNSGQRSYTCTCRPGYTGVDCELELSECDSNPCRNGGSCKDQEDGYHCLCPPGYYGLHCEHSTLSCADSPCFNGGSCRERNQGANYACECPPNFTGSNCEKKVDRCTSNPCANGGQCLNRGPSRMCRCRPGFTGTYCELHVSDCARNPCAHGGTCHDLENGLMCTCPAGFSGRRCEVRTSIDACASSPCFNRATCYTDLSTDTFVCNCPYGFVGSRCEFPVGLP
human DLL1 protein (Acro, Cat. No. DL1-H52H8) (human), sequence (O00548 18-540 limits assumed): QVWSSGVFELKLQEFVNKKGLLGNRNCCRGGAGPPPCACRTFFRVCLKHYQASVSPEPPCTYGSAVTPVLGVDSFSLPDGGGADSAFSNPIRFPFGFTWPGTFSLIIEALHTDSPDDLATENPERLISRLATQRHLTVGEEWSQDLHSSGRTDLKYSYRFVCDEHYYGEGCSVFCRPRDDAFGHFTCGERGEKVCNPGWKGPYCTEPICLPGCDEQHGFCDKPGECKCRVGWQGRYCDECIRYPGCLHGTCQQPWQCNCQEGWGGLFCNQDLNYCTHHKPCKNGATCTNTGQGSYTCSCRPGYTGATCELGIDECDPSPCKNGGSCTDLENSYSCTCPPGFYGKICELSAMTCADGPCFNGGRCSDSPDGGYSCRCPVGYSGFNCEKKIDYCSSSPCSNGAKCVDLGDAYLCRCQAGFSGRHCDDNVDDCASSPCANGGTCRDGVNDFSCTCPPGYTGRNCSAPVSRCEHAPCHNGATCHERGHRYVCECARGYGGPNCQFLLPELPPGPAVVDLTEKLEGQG

B1: mab006 scFv-hFc (Fc fusion, not shown: small tags and cut ends; a dimerising Fc or GST)
scFv (part 1 of 2): DVQITQSPSYLAASPGETITINCRATKSISKYLAWYQEKPGKTNKLLIFSGSTLQSGIPSRFRGSGSGTDFTLTISSLEPEDFAMYYCQQHHEYPYTFGGGTKLEIK
scFv (part 2 of 2): QVQLQQPGAELVRPGTSVKLSCKASGYTFTSYWMHWVRQRPGQGLEWIGVIDPSDSLANYNQEFKGKATLTVDTSSSTAYMQLSSLTSEDSAVYYCARDSTVVAPMDYWGQGTSVTVSS
Work on B1 yielded an MFI [1] of 664 MFI, an MFI [2] of 718 MFI and an MFI [3] of 643 MFI. It also gave an MFI [4] of 876 MFI, an MFI [5] of 497 MFI and an MFI [6] of 267 MFI. It also gave an MFI [7] of 152 MFI and an MFI [8] of 112 MFI.

B2: Hab006VL4VH1-hFc (scFv, part only; not given: scFv linker and human IgG1 Fc, V domains shown, not shown: another chain or arm of the molecule; a dimerising Fc or GST; small tags and cut ends)
VL: DIVMTQSPDSLAVSLGERATINCRATKSISKYLAWYQQKPGQTNKLLIFSGSTLQSGVPDRFSGSGSGTDFTLTISSLQAEDVAVYYCQQHHEYPYTFGGGTKVEIK
VH: EVQLVQSGAEVKKPGASVKVSCKASGYTFTSYWMHWVRQAPGQRLEWMGVIDPSDSLANYNQEFKGRVTITVDTSASTAYMELSSLRSEDTAVYYCARDSTVVAPMDYWGQGTTVTVSS
With B2 the MFI at 0.00128 nM [9] was 215 MFI, the MFI at 0.0064 nM [9] was 305 MFI and the MFI at 0.032 nM [9] was 554 MFI. The MFI at 0.16 nM [9] was 1060 MFI, the MFI at 0.8 nM [9] was 1410 MFI and the MFI at 4 nM [9] was 1490 MFI. For the same binder, the MFI at 20 nM [9] was 1660 MFI, the MFI at 100 nM [9] was 1900 MFI and the MFI [10] was 454. For the same binder, the MFI [11] was 504, the MFI [12] was 434 and the MFI [13] was 596. It also gave an MFI [14] of 397, an MFI [15] of 13600 MFI and an MFI [16] of 485 MFI. For the same binder, the MFI [17] was 252, the MFI [18] was 14500 MFI and the MFI [19] was 523 MFI. For the same binder, the MFI [20] was 157, the MFI [21] was 11300 MFI and the MFI [22] was 15200 MFI. It also gave an MFI [23] of 404 MFI, an MFI [24] of 554 MFI and an MFI [25] of 123. For the same binder, the MFI [26] was 4120 MFI, the MFI [27] was 278 MFI and the MFI [28] was 1130 MFI. It also gave an MFI [29] of 8440 MFI, an MFI [30] of 165 MFI and an MFI [31] of 411 MFI. The MFI [32] was 9050 MFI, the MFI [33] was 110 MFI and the MFI [34] was 227 MFI. The MFI [35] was 7500 MFI, the MFI [36] was 10500 MFI and the MFI [37] was 98 MFI. For the same binder, the MFI [38] was 3350 MFI, the MFI [39] was 1110 MFI and the MFI [40] was 424 MFI. For the same binder, the MFI [41] was 239 MFI, the Emax of OD450 nm binding value [42] was 0.07 OD450 nm and the Emax of OD450 nm binding value [43] was 0.08 OD450 nm. For the same binder, the Kd [44] was 286 pM, the koff [44] was 0.000119 s⁻¹ and the kon [44] was 415000 M⁻¹ s⁻¹.

B3: mab002 scFv-hFc (Fc fusion, not shown: small tags and cut ends; a dimerising Fc or GST)
scFv (part 1 of 2): QIVLTQSPAIMSASPGEKVTMTCSARSSVSYMQWYQQKSGTSPKRWIYDTSKLASGVPARFSGSGSGTSYSLTISTMEAEDAATYYCQQWSSDPPTFGGGTKLEIK
scFv (part 2 of 2): QIQLVQSGPELKKPGETVKISCKASGYTFTNYGMNWLKQAPGKGLKWMGWINTYTGESTYADDFKGRFAFSLETSASTVYLQINNLKNEDMATYFCARMGDGYYDFTMDYWGQGTSVTVSS
In the case of B3, the MFI [1] is reported as 535 MFI, the MFI [2] is reported as 548 MFI and the MFI [3] is reported as 498 MFI. For the same binder, the MFI [4] was 596 MFI, the MFI [5] was 518 MFI and the MFI [6] was 371 MFI. It also gave an MFI [7] of 255 MFI and an MFI [8] of 197 MFI.
